Measured values as given in the supplement of paper PMC7877785.
± gives the uncertainty stated by the source.

Test: self-splicing fitness, log relative to wild type (ln ratio); higher = more splicing; Tetrahymena group I intron in knt gene, E. coli kanamycin selection, DiMSum; sequences stand for … in CUCUCU…GGAGGGAAAAGUUAUCAGGCAUGCACCUGGUAGCUAGUCUUUAAACCAAUAGAUUGCAUCGGUUUAAAAGGCAAGACCGUCAAAUUGCGGGAAAGGGGUCAACAGCCGUUCAGUACCAAGUCUCAGGGGAAACUUUGAGAUGGCCUUGCAAAGGGUAUGGUAAUAAGCUGACGGACAUGGUCCUAACCACGCAGCCAAGUCCUAAGUCAACAGAUCUUCUGUUGAUAUGGAUGCAGUUCACAGACUAAAUGUCGGUCGGGGAAGAUGUAUUCUUCUCAUAAGAUAUAGUCGGACCUCUCCUUAAUGGGAGCUAGCGGAUGAAGUGAUGCAACACUGGAGCCGCUGGGAACUAAUUUGUAUGCGAAAGUAUAUUGAUUAGUUUUGGAGUACUCGUGGUCG
How it was run: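 Pooled colonies went to amplicon sequencing on an Illumina HiSeq 2500 after six replicate transformations. The plates were LB agar with 100 μg/mL carbenicillin, 50 μM IPTG and 0.2% rhamnose, with or without 25 μg/mL kanamycin, incubated overnight at 37°C or 30°C. The E. coli BL21(DE3) library had all eight P1ex-region intron nucleotides randomised, the intron placed in the knt kanamycin-resistance gene on pET-22b(+). DiMSum fitness is the error-weighted combination of replicate fold changes, kanamycin against none, normalised to wild type.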

## AGACAGCAAUAUUACGGGUU
30 °C
  self-splicing fitness (ln): -1.96 ± 0.1
37 °C
  self-splicing fitness (ln): -1.12 ± 0.12

## AGACAGCAAUAUUACGGUAU
30 °C
  self-splicing fitness (ln): -2.55 ± 0.1
37 °C
  self-splicing fitness (ln): -0.734 ± 0.091

## AGACAGCAAUAUUACGGUCU
30 °C
  self-splicing fitness (ln): -3.78 ± 0.23
37 °C
  self-splicing fitness (ln): -2.48 ± 0.25

## AGACAGCAAUAUUACGGUGA
30 °C
  self-splicing fitness (ln): -1.49 ± 0.074
37 °C
  self-splicing fitness (ln): -0.921 ± 0.095

## AGACAGCAAUAUUACGUAGA
30 °C
  self-splicing fitness (ln): -2.6 ± 0.081
37 °C
  self-splicing fitness (ln): -2.5 ± 0.11

## AGACAGCAAUAUUACGUAGG
30 °C
  self-splicing fitness (ln): -2.6 ± 0.11
37 °C
  self-splicing fitness (ln): -1.28 ± 0.11

## AGACAGCAAUAUUACGUUCU
30 °C
  self-splicing fitness (ln): -3.7 ± 0.18
37 °C
  self-splicing fitness (ln): -3.16 ± 0.21

## AGAGAGCAAUAUUACGAACC
30 °C
  self-splicing fitness (ln): -2.98 ± 0.39
37 °C
  self-splicing fitness (ln): -1.57 ± 0.38

## AGAGAGCAAUAUUACGAAGG
30 °C
  self-splicing fitness (ln): -3.13 ± 0.39
37 °C
  self-splicing fitness (ln): -1.42 ± 0.37

## AGAGAGCAAUAUUACGAGUA
37 °C
  self-splicing fitness (ln): -2.01 ± 0.45

## AGAGAGCAAUAUUACGAUUG
30 °C
  self-splicing fitness (ln): -3.12 ± 0.25
37 °C
  self-splicing fitness (ln): -2.88 ± 0.35

## AGAGAGCAAUAUUACGCAAG
30 °C
  self-splicing fitness (ln): -3.46 ± 0.3
37 °C
  self-splicing fitness (ln): -2.29 ± 0.3

## AGAGAGCAAUAUUACGCGAG
30 °C
  self-splicing fitness (ln): -2.97 ± 0.34

## AGAGAGCAAUAUUACGCGUA
30 °C
  self-splicing fitness (ln): -2.46 ± 0.27
37 °C
  self-splicing fitness (ln): -2.08 ± 0.48

## AGAGAGCAAUAUUACGCGUC
30 °C
  self-splicing fitness (ln): -2.64 ± 0.36
37 °C
  self-splicing fitness (ln): -0.28 ± 0.28

## AGAGAGCAAUAUUACGCGUU
30 °C
  self-splicing fitness (ln): -2.09 ± 0.4

## AGAGAGCAAUAUUACGCUAG
30 °C
  self-splicing fitness (ln): -2.84 ± 0.28
37 °C
  self-splicing fitness (ln): -2.91 ± 0.38

## AGAGAGCAAUAUUACGCUCU
30 °C
  self-splicing fitness (ln): -2.47 ± 0.47

## AGAGAGCAAUAUUACGGAAC
30 °C
  self-splicing fitness (ln): -2.74 ± 0.38
37 °C
  self-splicing fitness (ln): -1.83 ± 0.4

## AGAGAGCAAUAUUACGGCUG
30 °C
  self-splicing fitness (ln): -0.227 ± 0.24
37 °C
  self-splicing fitness (ln): -2.26 ± 0.49

## AGAGAGCAAUAUUACGGGAG
30 °C
  self-splicing fitness (ln): -2.6 ± 0.4

## AGAGAGCAAUAUUACGGGUG
30 °C
  self-splicing fitness (ln): -3.31 ± 0.32

## AGAGAGCAAUAUUACGUACC
30 °C
  self-splicing fitness (ln): -1.69 ± 0.28
37 °C
  self-splicing fitness (ln): -0.0438 ± 0.38

## AGAGAGCAAUAUUACGUAUU
30 °C
  self-splicing fitness (ln): -4.03 ± 0.35
37 °C
  self-splicing fitness (ln): -3.1 ± 0.3

## AGAGAGCAAUAUUACGUGCG
30 °C
  self-splicing fitness (ln): -1.98 ± 0.16
37 °C
  self-splicing fitness (ln): -1.79 ± 0.26

## AGAGAGCAAUAUUACGUGGA
30 °C
  self-splicing fitness (ln): -3.15 ± 0.4
37 °C
  self-splicing fitness (ln): -2.3 ± 0.5

## AGAGAGCAAUAUUACGUUAC
30 °C
  self-splicing fitness (ln): -2.67 ± 0.22
37 °C
  self-splicing fitness (ln): -2.19 ± 0.42

## AGAGAGCAAUAUUACGUUGU
30 °C
  self-splicing fitness (ln): -3.79 ± 0.21
37 °C
  self-splicing fitness (ln): -3.07 ± 0.2

## AGAUAGCAAUAUUACGAACA
30 °C
  self-splicing fitness (ln): -1.15 ± 0.11
37 °C
  self-splicing fitness (ln): -0.00294 ± 0.12

## AGAUAGCAAUAUUACGACGA
30 °C
  self-splicing fitness (ln): -0.422 ± 0.095
37 °C
  self-splicing fitness (ln): -0.749 ± 0.085

## AGAUAGCAAUAUUACGACUU
30 °C
  self-splicing fitness (ln): -0.125 ± 0.065
37 °C
  self-splicing fitness (ln): -0.304 ± 0.086

## AGAUAGCAAUAUUACGAUCU
30 °C
  self-splicing fitness (ln): -1.53 ± 0.14
37 °C
  self-splicing fitness (ln): -0.462 ± 0.17

## AGAUAGCAAUAUUACGCGAU
30 °C
  self-splicing fitness (ln): -2.53 ± 0.25
37 °C
  self-splicing fitness (ln): -2.15 ± 0.27

## AGAUAGCAAUAUUACGCGUA
30 °C
  self-splicing fitness (ln): -1.2 ± 0.12
37 °C
  self-splicing fitness (ln): -1.41 ± 0.13

## AGAUAGCAAUAUUACGCUCG
30 °C
  self-splicing fitness (ln): -0.0589 ± 0.11
37 °C
  self-splicing fitness (ln): -0.37 ± 0.12

## AGAUAGCAAUAUUACGCUCU
30 °C
  self-splicing fitness (ln): -3.31 ± 0.23
37 °C
  self-splicing fitness (ln): -1.46 ± 0.21

## AGAUAGCAAUAUUACGGAUG
30 °C
  self-splicing fitness (ln): -2.96 ± 0.19
37 °C
  self-splicing fitness (ln): -2.3 ± 0.28

## AGAUAGCAAUAUUACGGCGA
30 °C
  self-splicing fitness (ln): -0.537 ± 0.14
37 °C
  self-splicing fitness (ln): -0.0635 ± 0.14

## AGAUAGCAAUAUUACGGCGG
30 °C
  self-splicing fitness (ln): -0.92 ± 0.12
37 °C
  self-splicing fitness (ln): -1.04 ± 0.15

## AGAUAGCAAUAUUACGGCUC
30 °C
  self-splicing fitness (ln): -1.14 ± 0.32
37 °C
  self-splicing fitness (ln): -0.656 ± 0.37

## AGAUAGCAAUAUUACGGGGU
30 °C
  self-splicing fitness (ln): -3.5 ± 0.16
37 °C
  self-splicing fitness (ln): -2.26 ± 0.13

## AGAUAGCAAUAUUACGGUAG
30 °C
  self-splicing fitness (ln): -3.93 ± 0.37
37 °C
  self-splicing fitness (ln): -1.69 ± 0.21

## AGAUAGCAAUAUUACGUACA
30 °C
  self-splicing fitness (ln): -1.26 ± 0.055
37 °C
  self-splicing fitness (ln): -0.0902 ± 0.08

## AGAUAGCAAUAUUACGUCAC
30 °C
  self-splicing fitness (ln): -1.17 ± 0.27
37 °C
  self-splicing fitness (ln): -2.78 ± 0.48

## AGAUAGCAAUAUUACGUCCA
30 °C
  self-splicing fitness (ln): 0.498 ± 0.11
37 °C
  self-splicing fitness (ln): 0.122 ± 0.18

## AGAUAGCAAUAUUACGUGCU
30 °C
  self-splicing fitness (ln): -1.39 ± 0.1
37 °C
  self-splicing fitness (ln): -0.664 ± 0.12

## AGAUAGCAAUAUUACGUGGG
30 °C
  self-splicing fitness (ln): -2.85 ± 0.15
37 °C
  self-splicing fitness (ln): -2.49 ± 0.19

## AGAUAGCAAUAUUACGUGUA
30 °C
  self-splicing fitness (ln): -2.9 ± 0.14
37 °C
  self-splicing fitness (ln): -1.82 ± 0.12

## AGAUAGCAAUAUUACGUUGU
30 °C
  self-splicing fitness (ln): -2.26 ± 0.08
37 °C
  self-splicing fitness (ln): -2.39 ± 0.11
